Values of other authors, collected in paper PMC8070256, “Feasibility of Developing Radiotracers for MDM2: Synthesis and Preliminary Evaluation of an ^18F-Labeled Analogue of the MDM2 Inhibitor SP-141” (Pharmaceuticals, 2021).

Target: MDM2 (Homo sapiens) (UniProt Q00987)
Sequence (Q00987 whole entry): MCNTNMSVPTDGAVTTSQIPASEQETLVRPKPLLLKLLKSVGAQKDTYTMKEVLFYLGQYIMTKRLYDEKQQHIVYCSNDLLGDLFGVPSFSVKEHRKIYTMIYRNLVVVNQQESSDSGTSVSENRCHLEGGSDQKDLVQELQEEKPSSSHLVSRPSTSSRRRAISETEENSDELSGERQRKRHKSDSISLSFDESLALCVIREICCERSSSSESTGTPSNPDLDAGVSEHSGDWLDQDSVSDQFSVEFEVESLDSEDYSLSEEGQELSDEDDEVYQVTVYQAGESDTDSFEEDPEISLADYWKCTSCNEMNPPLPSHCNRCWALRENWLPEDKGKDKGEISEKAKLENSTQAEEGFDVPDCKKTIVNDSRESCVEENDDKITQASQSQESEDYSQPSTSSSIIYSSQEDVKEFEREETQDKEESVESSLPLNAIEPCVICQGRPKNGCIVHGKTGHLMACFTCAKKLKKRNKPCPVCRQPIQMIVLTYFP

- Ki: 1100 nM
Substance: p53 peptide (from UniProt P04637)
